Results published in IntAct's records for PubMed 31515488.

B1: WASH complex subunit 3 (Homo sapiens), Q9Y3C0 (parent)
chain: MDEDGLPLMGSGIDLTKVPAIQQKRTVAFLNQFVVHTVQFLNRFSTVCEEKLADLSLRIQQIETTLNILDAKLSSIPGLDDVTVEVSPLNVTSVTNGAHPEATSEQPQQNSTQDSGLQESEVSAENILTVAKDPRYARYLKMVQVGVPVMAIRNKMISEGLDPDLLERPDAPVPDGESEKTVEESSDSESSFSD
B2: Myotubularin-related protein 9 (Homo sapiens), Q96QG7 (parent)
chain: MEFAELIKTPRVDNVVLHRPFYPAVEGTLCLTGHHLILSSRQDNTEELWLLHSNIDAIDKRFVGSLGTIIIKCKDFRIIQLDIPGMEECLNIASSIEALSTLDSITLMYPFFYRPMFEVIEDGWHSFLPEQEFELYSSATSEWRLSYVNKEFAVCPSYPPIVTVPKSIDDEALRKVATFRHGGRFPVLSYYHKKNGMVIMRSGQPLTGTNGRRCKEDEKLINATLRAGKRGYIIDTRSLNVAQQTRAKGGGFEQEAHYPQWRRIHKSIERYHILQESLIKLVEACNDQTHNMDRWLSKLEASNWLTHIKEILTTACLAAQCIDREGASILIHGTEGTDSTLQVTSLAQIILEPRSRTIRGFEALIEREWLQAGHPFQQRCAQSAYCNTKQKWEAPVFLLFLDCVWQILRQFPCSFEFNENFLIMLFEHAYASQFGTFLGNNESERCKLKLQQKTMSLWSWVNQPSELSKFTNPLFEANNLVIWPSVAPQSLPLWEGIFLRWNRSSKYLDEAYEEMVNIIEYNKELQAKVNILRRQLAELETEDGMQESP

Variants of: B1
Conditions: with optn_human OPTN

Variant | effect of a mutation on the interaction
MDEDGLPLMGSGIDLTKVPAIQQKRTVAFLNQFVVHTVQFLNRLSTVCEEKLADLSLRIQQIETTLNILDAKLSSIPGLDDVTVEVSPLNVTSVTNGAHPEATSEQPQQNSTQDSGLQESEVSAENILTVAKDPRYARYLKMVQVGVPVMAIRNKMISEGLDPDLLERPDAPVPDGESEKTVEESSDSESSFSD [F44L] | with no effect

Variants of: B1
Conditions: with ift20_human IFT20, Q8IY31
Sequence of ift20_human IFT20, Q8IY31 (Q8IY31 whole entry): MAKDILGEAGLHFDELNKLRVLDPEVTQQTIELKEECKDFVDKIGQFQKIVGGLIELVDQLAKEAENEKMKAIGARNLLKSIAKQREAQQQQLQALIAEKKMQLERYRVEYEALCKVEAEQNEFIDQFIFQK

Variant | effect of a mutation on the interaction
MDEDGLPLMGSGIDLTKVPAIQQKRTVAFLNQFVVHTVQFLNRLSTVCEEKLADLSLRIQQIETTLNILDAKLSSIPGLDDVTVEVSPLNVTSVTNGAHPEATSEQPQQNSTQDSGLQESEVSAENILTVAKDPRYARYLKMVQVGVPVMAIRNKMISEGLDPDLLERPDAPVPDGESEKTVEESSDSESSFSD [F44L] | with no effect

Variants of: B1
Conditions: with abi2_human ABI2, Q9NYB9
Sequence of abi2_human ABI2, Q9NYB9 (Q9NYB9 whole entry): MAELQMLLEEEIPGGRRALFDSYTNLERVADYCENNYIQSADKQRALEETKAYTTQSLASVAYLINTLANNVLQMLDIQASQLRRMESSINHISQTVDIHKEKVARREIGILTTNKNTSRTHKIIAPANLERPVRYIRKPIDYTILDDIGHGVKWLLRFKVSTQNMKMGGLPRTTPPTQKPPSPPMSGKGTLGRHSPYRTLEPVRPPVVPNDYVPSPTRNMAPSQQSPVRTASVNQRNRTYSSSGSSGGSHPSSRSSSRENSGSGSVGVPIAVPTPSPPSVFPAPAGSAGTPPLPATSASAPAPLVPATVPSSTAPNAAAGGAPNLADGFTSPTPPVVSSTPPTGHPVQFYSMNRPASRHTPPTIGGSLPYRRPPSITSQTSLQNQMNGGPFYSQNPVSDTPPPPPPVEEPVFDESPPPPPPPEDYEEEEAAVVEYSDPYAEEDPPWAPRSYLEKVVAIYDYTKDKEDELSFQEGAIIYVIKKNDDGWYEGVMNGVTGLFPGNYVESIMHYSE

Variant | effect of a mutation on the interaction
MDEDGLPLMGSGIDLTKVPAIQQKRTVAFLNQFVVHTVQFLNRLSTVCEEKLADLSLRIQQIETTLNILDAKLSSIPGLDDVTVEVSPLNVTSVTNGAHPEATSEQPQQNSTQDSGLQESEVSAENILTVAKDPRYARYLKMVQVGVPVMAIRNKMISEGLDPDLLERPDAPVPDGESEKTVEESSDSESSFSD [F44L] | disrupting interaction strength

Variants of: B1
Conditions: with ndc80_human NDC80, O14777
Sequence of ndc80_human NDC80, O14777 (O14777 whole entry): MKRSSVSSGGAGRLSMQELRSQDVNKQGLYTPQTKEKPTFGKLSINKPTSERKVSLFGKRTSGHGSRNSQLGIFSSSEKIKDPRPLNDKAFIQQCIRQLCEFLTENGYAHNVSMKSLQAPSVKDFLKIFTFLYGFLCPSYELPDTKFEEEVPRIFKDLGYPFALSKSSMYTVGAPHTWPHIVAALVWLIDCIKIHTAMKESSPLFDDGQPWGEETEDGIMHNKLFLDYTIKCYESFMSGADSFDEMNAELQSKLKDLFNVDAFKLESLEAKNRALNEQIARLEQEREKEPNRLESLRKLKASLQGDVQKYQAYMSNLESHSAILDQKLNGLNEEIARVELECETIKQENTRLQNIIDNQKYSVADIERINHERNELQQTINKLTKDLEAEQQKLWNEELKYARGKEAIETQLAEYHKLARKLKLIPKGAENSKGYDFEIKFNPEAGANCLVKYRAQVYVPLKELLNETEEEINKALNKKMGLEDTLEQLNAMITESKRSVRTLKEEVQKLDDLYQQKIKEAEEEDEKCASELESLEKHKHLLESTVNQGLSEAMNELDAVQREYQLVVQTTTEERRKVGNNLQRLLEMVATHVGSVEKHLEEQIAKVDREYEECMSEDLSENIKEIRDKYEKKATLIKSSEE

Variant | effect of a mutation on the interaction
MDEDGLPLMGSGIDLTKVPAIQQKRTVAFLNQFVVHTVQFLNRLSTVCEEKLADLSLRIQQIETTLNILDAKLSSIPGLDDVTVEVSPLNVTSVTNGAHPEATSEQPQQNSTQDSGLQESEVSAENILTVAKDPRYARYLKMVQVGVPVMAIRNKMISEGLDPDLLERPDAPVPDGESEKTVEESSDSESSFSD [F44L] | with no effect

Variants of: B1
Conditions: with pcm1_human PCM1, Q15154
Sequence of pcm1_human PCM1, Q15154 (Q15154 whole entry): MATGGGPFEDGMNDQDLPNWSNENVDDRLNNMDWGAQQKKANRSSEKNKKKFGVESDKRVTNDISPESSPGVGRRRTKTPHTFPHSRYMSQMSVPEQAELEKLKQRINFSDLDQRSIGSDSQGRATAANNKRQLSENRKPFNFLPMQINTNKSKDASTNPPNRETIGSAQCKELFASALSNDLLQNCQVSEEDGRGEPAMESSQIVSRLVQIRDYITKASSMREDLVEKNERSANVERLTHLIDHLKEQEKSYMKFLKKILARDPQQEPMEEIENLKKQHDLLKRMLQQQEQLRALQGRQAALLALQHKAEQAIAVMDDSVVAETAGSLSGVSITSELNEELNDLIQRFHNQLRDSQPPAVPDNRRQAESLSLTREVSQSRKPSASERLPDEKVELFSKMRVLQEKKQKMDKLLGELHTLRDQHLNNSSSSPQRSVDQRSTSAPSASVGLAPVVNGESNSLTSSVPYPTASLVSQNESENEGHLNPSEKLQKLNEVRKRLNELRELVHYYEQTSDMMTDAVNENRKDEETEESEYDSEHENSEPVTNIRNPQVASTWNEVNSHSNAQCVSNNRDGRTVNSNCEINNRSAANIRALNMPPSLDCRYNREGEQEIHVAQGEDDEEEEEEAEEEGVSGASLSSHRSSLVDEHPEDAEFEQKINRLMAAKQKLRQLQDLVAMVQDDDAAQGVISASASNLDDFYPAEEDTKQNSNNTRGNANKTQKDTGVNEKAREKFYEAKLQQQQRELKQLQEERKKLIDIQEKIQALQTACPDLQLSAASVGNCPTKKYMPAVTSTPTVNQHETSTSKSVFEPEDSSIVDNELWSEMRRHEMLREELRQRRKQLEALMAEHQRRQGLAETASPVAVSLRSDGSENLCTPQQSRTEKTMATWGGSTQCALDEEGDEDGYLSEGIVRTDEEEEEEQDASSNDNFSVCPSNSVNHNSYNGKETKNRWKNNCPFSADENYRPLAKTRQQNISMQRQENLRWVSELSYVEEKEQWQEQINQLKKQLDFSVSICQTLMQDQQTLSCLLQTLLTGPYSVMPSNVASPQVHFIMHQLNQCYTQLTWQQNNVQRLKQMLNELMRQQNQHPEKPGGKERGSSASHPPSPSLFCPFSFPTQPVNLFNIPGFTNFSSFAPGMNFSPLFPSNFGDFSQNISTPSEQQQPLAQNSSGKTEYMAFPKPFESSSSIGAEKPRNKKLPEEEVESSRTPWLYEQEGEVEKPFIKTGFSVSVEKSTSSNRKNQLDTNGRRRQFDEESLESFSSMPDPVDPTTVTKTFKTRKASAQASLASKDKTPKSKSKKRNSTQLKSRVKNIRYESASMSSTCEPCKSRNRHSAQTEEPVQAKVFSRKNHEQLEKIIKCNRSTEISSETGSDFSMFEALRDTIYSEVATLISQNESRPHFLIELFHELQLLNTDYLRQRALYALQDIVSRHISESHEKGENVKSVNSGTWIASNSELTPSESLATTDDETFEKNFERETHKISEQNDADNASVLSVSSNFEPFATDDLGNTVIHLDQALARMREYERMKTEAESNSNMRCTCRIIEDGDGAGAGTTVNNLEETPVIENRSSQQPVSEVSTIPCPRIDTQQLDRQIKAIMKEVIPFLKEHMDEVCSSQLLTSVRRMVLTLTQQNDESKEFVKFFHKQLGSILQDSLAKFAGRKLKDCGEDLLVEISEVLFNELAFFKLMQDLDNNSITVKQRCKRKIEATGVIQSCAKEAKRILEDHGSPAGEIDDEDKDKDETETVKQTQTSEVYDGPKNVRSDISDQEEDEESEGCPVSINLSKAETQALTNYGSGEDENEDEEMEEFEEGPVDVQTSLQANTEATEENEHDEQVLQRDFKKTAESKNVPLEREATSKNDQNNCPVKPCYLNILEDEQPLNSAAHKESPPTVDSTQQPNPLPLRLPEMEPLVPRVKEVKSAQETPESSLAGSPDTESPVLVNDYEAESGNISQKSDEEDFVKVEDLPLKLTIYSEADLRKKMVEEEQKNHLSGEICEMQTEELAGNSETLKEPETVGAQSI

Variant | effect of a mutation on the interaction
MDEDGLPLMGSGIDLTKVPAIQQKRTVAFLNQFVVHTVQFLNRLSTVCEEKLADLSLRIQQIETTLNILDAKLSSIPGLDDVTVEVSPLNVTSVTNGAHPEATSEQPQQNSTQDSGLQESEVSAENILTVAKDPRYARYLKMVQVGVPVMAIRNKMISEGLDPDLLERPDAPVPDGESEKTVEESSDSESSFSD [F44L] | with no effect

Variants of: B1
Conditions: with mcrs1_human MCRS1, Q96EZ8
Sequence of mcrs1_human MCRS1, Q96EZ8 (Q96EZ8 whole entry): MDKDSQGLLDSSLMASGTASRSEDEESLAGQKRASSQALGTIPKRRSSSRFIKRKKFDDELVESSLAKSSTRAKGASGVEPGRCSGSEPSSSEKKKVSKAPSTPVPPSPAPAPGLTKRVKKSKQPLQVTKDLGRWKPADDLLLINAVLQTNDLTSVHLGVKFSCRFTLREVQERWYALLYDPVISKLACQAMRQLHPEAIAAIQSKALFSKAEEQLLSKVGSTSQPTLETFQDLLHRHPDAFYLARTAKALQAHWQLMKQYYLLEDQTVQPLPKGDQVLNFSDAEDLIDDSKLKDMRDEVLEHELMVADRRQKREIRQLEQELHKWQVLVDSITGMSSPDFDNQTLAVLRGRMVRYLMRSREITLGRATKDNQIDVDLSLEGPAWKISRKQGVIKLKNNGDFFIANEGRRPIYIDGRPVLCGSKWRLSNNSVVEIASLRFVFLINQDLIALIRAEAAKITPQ

Variant | effect of a mutation on the interaction
MDEDGLPLMGSGIDLTKVPAIQQKRTVAFLNQFVVHTVQFLNRLSTVCEEKLADLSLRIQQIETTLNILDAKLSSIPGLDDVTVEVSPLNVTSVTNGAHPEATSEQPQQNSTQDSGLQESEVSAENILTVAKDPRYARYLKMVQVGVPVMAIRNKMISEGLDPDLLERPDAPVPDGESEKTVEESSDSESSFSD [F44L] | with no effect

Variants of: B1
Conditions: with txlna_human TXLNA

Variant | effect of a mutation on the interaction
MDEDGLPLMGSGIDLTKVPAIQQKRTVAFLNQFVVHTVQFLNRLSTVCEEKLADLSLRIQQIETTLNILDAKLSSIPGLDDVTVEVSPLNVTSVTNGAHPEATSEQPQQNSTQDSGLQESEVSAENILTVAKDPRYARYLKMVQVGVPVMAIRNKMISEGLDPDLLERPDAPVPDGESEKTVEESSDSESSFSD [F44L] | with no effect

Variants of: B2
Conditions: with lnx1_human LNX1, Q8TBB1

Variant | effect of a mutation on the interaction
MEFAELIKTPRVDNVVLHRPFYPAVEGTLCLTGHHLILSSRQDNTEELWLLHSNIDAIDKRFVGSLGTIIIKCKDFRIIQLDIPGMEECLNIASSIEALSTLDSITLMYPFFYRPMFEVIEDGWHCFLPEQEFELYSSATSEWRLSYVNKEFAVCPSYPPIVTVPKSIDDEALRKVATFRHGGRFPVLSYYHKKNGMVIMRSGQPLTGTNGRRCKEDEKLINATLRAGKRGYIIDTRSLNVAQQTRAKGGGFEQEAHYPQWRRIHKSIERYHILQESLIKLVEACNDQTHNMDRWLSKLEASNWLTHIKEILTTACLAAQCIDREGASILIHGTEGTDSTLQVTSLAQIILEPRSRTIRGFEALIEREWLQAGHPFQQRCAQSAYCNTKQKWEAPVFLLFLDCVWQILRQFPCSFEFNENFLIMLFEHAYASQFGTFLGNNESERCKLKLQQKTMSLWSWVNQPSELSKFTNPLFEANNLVIWPSVAPQSLPLWEGIFLRWNRSSKYLDEAYEEMVNIIEYNKELQAKVNILRRQLAELETEDGMQESP [S126C] | disrupting interaction strength

Variants of: B2
Conditions: with emil1_human EMILIN1, Q9Y6C2
Sequence of emil1_human EMILIN1, Q9Y6C2 (Q9Y6C2 whole entry): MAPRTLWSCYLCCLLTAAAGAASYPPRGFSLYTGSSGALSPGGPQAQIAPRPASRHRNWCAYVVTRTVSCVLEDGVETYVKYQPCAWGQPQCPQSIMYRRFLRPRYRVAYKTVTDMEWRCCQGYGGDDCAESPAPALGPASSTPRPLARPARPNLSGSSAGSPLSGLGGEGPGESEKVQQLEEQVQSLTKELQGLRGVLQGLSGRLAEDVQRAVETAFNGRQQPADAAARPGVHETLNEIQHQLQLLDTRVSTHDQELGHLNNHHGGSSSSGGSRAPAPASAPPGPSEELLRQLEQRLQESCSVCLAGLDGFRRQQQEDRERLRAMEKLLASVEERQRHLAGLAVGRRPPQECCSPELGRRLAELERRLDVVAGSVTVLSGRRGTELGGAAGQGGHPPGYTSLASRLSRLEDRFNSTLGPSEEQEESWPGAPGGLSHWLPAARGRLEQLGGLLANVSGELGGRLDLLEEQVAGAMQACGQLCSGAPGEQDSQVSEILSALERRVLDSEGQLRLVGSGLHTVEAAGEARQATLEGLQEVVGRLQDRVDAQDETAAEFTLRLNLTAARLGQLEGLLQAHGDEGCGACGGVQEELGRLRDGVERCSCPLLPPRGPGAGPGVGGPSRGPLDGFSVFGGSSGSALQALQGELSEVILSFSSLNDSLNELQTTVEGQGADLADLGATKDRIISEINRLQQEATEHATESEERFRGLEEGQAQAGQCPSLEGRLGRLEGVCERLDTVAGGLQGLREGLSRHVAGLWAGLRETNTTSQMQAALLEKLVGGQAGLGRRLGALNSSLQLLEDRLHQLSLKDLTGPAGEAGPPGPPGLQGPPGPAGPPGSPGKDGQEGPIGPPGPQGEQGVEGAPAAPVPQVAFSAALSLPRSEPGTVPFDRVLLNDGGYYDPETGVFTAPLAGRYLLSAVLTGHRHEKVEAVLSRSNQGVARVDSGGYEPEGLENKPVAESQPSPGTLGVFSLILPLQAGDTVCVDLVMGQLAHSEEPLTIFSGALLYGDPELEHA

Variant | effect of a mutation on the interaction
MEFAELIKTPRVDNVVLHRPFYPAVEGTLCLTGHHLILSSRQDNTEELWLLHSNIDAIDKRFVGSLGTIIIKCKDFRIIQLDIPGMEECLNIASSIEALSTLDSITLMYPFFYRPMFEVIEDGWHCFLPEQEFELYSSATSEWRLSYVNKEFAVCPSYPPIVTVPKSIDDEALRKVATFRHGGRFPVLSYYHKKNGMVIMRSGQPLTGTNGRRCKEDEKLINATLRAGKRGYIIDTRSLNVAQQTRAKGGGFEQEAHYPQWRRIHKSIERYHILQESLIKLVEACNDQTHNMDRWLSKLEASNWLTHIKEILTTACLAAQCIDREGASILIHGTEGTDSTLQVTSLAQIILEPRSRTIRGFEALIEREWLQAGHPFQQRCAQSAYCNTKQKWEAPVFLLFLDCVWQILRQFPCSFEFNENFLIMLFEHAYASQFGTFLGNNESERCKLKLQQKTMSLWSWVNQPSELSKFTNPLFEANNLVIWPSVAPQSLPLWEGIFLRWNRSSKYLDEAYEEMVNIIEYNKELQAKVNILRRQLAELETEDGMQESP [S126C] | with no effect
